Assay results from patent publication US20060269977A1, “Recombinant antibody recognizing dioxin and gene encoding the antibody” (priority 2003, published 2006).

Experiments:
Type in all cases: binding
[1] = Hybridoma supernatant EIA: antibody titer to immobilized 2,3,4,7,8-PeCDF derivative-BSA conjugate and its inhibition by 2,3,4,7,8-PeCDF; conditions: titer inhibited by 2,3,4,7,8-PeCDF dissolved in 20% DMSO
Protocol: After 7 to 10 days from the onset of the cultivation, a portion of the supernatant of the culture in the wells in which proliferation of hybridomas was observed was taken and added to a microtiter plate to which the 2,3,4,7,8-PeCDF derivative-BSA conjugate was immobilized. After allowing to react at room temperature for one hour, the plate was washed with PBS(−) containing 0.05% Tween 20. A peroxidase-labeled anti-mouse IgG antibody (recognizing γ-chain) (KPL Co.) was then added to the plate and allowed to react at room temperature for one hour, and the plate was then washed in the same manner. A substrate solution (TMB substrate, KPL Co.) was added to the plate, the peroxidase activity on the plate was measured, and the antibody titer in the supernatant of the culture was determined.

[2] = EIA reactivity of H-chain variable region polypeptide fractions to immobilized 2,3,4,7,8-PeCDF-BSA conjugate; conditions: fractions eluted from nickel-chelate column; EIA on immobilized 2,3,4,7,8-PeCDF-BSA conjugate; FIG. 10
Protocol: Escherichia coli Origami B (DE3) (Novagen Co.) was transformed using expression vector pET22Δ-Dx3860H which was prepared by removing the sequence between restriction enzyme sites Bam HI and Not I containing the L-chain variable region of expression vector pET22Δ-Dx3860HL. Using the transformant, the expression of the H-chain variable region polypeptide (polypeptide having the amino acid sequence as shown in SEQ ID No. 5) was carried out in the same manner as in the case of the scFv.
The H-chain variable region polypeptide obtained as an inclusion body was reconstituted on a nickel-chelate column as described above, and the product was then isolated and purified using imidazole. Protein concentrations of the fractions eluted from the chelate column were determined by measuring absorbance (280 nm), and the reactivity to an immobilized 2,3,4,7,8-PeCDF-BSA conjugate was also investigated by an EIA method. As a result, it was recognized that the fractions of the H-chain variable region polypeptide have an anti-2,3,4,7,8-PeCDF activity as shown in FIG. 10.

[3] = Indirect competitive immunoassay using anti-2,3,4,7,8-PeCDF scFv; conditions: 2,3,4,7,8-PeCDF solution in 20% DMSO; immobilized 2,3,4,7,8-PeCDF derivative-BSA conjugate; FIG. 9
Protocol: Determination of 2,3,4,7,8-PeCDF by an Indirect Competitive Immunoassay Using Anti-2,3,4,7,8-PeCDF scFv
One μg/ml of 2,3,4,7,8-PeCDF derivative-BSA conjugate (50 μl) was added to a microtiter plate, and allowed to react at room temperature for one hour. The wells of the microtiter plate were washed with PBS(−) containing 0.05% Tween 20. A solution of Block Ace (Yukijirushi Co.) was then added to the wells, and the wells were blocked by allowing them to stand at room temperature for two hours. After the microtiter plate was washed, a solution (25 μl) of 2,3,4,7,8-PeCDF prepared in various concentrations (a solution in 20% DMSO) and a solution (25 μl) of anti-2,3,4,7,8-PeCDF scFv were added to the wells, and allowed to react at room temperature for 0.5 to 1 hour. After the microtiter plate was again washed, a solution of anti-tetra-His antibody (Qiagen Co.) 2000-fold diluted was added to the wells, and allowed to react at room temperature for one hour. Subsequently, a solution (50 μl) of peroxidase-labeled anti-mouse IgG (recognizing γ-chain) antibody (KPL Co.) 3000-fold diluted was added to the wells, and allowed to react at room temperature for one hour. […] The reaction was terminated by adding 1 M H3PO4 (50 μl), and OD450 (control: OD600) was measured using a plate reader (Labsystems Co.).

Molecule	recognition of 2,3,4,7,8-PeCDF by monoclonal antibody [1]	further results
Dx3150: monoclonal antibody recognizing 2,3,4,7,8-PeCDF, produced by hybridoma Dx3150r1; H/L variable regions SEQ ID Nos. 7 and 8 (antibody, V domains shown, Polypeptide of H-chain variable region of monoclonal antibody Dx 3150; Polypeptide of L-chain variable region of monoclonal antibody Dx 3150) VH: DVQLQESGPGLVKPSQSLSLTCSVTGYSITSGFYWNWIRQFPGNKLEWMGYISYDGYNNYNPFLKNRVSITRDTSENQFFLKLHSVTTEDTATYYCVSYGSRRGVTYWGQGTTLTVSS VL: QAVVTQESALTTSPGETVTLTCRSSTGAVTTSNYANWVQEKPDHLFTGLIGNTNNRAPGVPARFSGSLIGDKAALTITGAQTEDEAIYFCALWYNTHLVFGGGTRLTVLG	recognizing 2,3,4,7,8-PeCDF	–
H-chain variable region polypeptide: H-chain variable region of Dx3860, polypeptide having the amino acid sequence of SEQ ID No. 5, from vector pET22Δ-Dx3860H (antibody, V domains shown, Polypeptide of H-chain variable region of monoclonal antibody Dx 3860) VH: EVKLVESGGGLVKPGGSLKLSCAASGFTFSSYAMSWVRQTPEKRLEWVASFSNGGITYYPDSVKGRFTISRDNARNILYLQMTSLRSEDTAIYYCARGYGPAYWGQGTLVTVSA	–	binding activity to 2,3,4,7,8-PeCDF (anti-2,3,4,7,8-PeCDF activity) [2]: has a binding activity to 2,3,4,7,8-PeCDF
Dx3860: monoclonal antibody recognizing 2,3,4,7,8-PeCDF, produced by hybridoma Dx3860r1; H/L variable regions SEQ ID Nos. 5 and 6 (antibody, V domains shown, Polypeptide of H-chain variable region of monoclonal antibody Dx 3860; Polypeptide of L-chain variable region of monoclonal antibody Dx 3860) VH: EVKLVESGGGLVKPGGSLKLSCAASGFTFSSYAMSWVRQTPEKRLEWVASFSNGGITYYPDSVKGRFTISRDNARNILYLQMTSLRSEDTAIYYCARGYGPAYWGQGTLVTVSA VL: QAVVTQESALTTSPGETVTLTCRSSTGAVTTLNYANWVQEKPDHLFTGLIGNTNNRAPGVPARFSGSLIGDKAALTITGAQTEDEAIYFCALWYSNHLVFGGGTKLTVLG	recognizing 2,3,4,7,8-PeCDF	–
anti-2,3,4,7,8-PeCDF scFv: scFv: H-chain variable region of Dx3860, linker, L-chain variable region of Dx3860 (SEQ ID No. 56), expressed in E. coli Origami B (DE3) (protein, scFv fragment Dx3860HL) scFv: EVKLVESGGGLVKPGGSLKLSCAASGFTFSSYAMSWVRQTPEKRLEWVASFSNGGITYYPDSVKGRFTISRDNARNILYLQMTSLRSEDTAIYYCARGYGPAYWGQGTLVTVSSGGGGSGGGGSGGGGSQAVVTQESALTTSPGETVTLTCRSSTGAVTTLNYANWVQEKPDHLFTGLIGNTNNRAPGVPARFSGSLIGDKAALTITGAQTEDEAIYFCALWYSNHLVFGGGTKLTVLG	–	determination of 2,3,4,7,8-PeCDF by indirect competitive immunoassay [3]: can be determined in a highly sensitive manner
